Here are results for 40 variants from the Human Domainome abundance scans (Beltran et al. 2025).

Sequences and labels used below:
B1: Double-stranded RNA-binding protein Staufen homolog 1, residues 183 to 249; numbered along this chain, O95793 (parent)
chain: KSEISQVFEIALKRNLPVNFEVARESGPPHMKNFVTKVSVGEFVGEGEGKSKKISKKNAAIAVLEEL

± gives the uncertainty stated by the source.

Variants of B1 are the subject of this series. As to the kind of experiment: abundance fitness (aPCA) (normalised: wild type 0, dead -1); higher = more abundant; growth selection in yeast, the domain comes from the species named. Conditions: Homo sapiens.
With KSEISQVFEIALKRNLPVNFEVARESGPPHMKNFVTKVSVGEFVGEGKGKSKKISKKNAAIAVLEEL [E48K], the abundance fitness turned out to be 0.089 ± 0.06.
Take KSEISQVFEIALKRNLPVNFEVARESGPPHMKNFVTKVSVGEFVGEGYGKSKKISKKNAAIAVLEEL [E48Y]: the abundance fitness is 0.002 ± 0.093.
Consider KSEISQVFEIALKRNLPVNFEVARESGPPHMKNFVTKVSVGEFVGEGAGKSKKISKKNAAIAVLEEL [E48A], for which the abundance fitness came out at 0.001 ± 0.046.
For KSEISQVFEIALKRNLPVNFEVARESGPPHMKNFVTKVSVGEFVGEGFGKSKKISKKNAAIAVLEEL [E48F], the abundance fitness was -0.01 ± 0.098.
Take KSEISQVFEIALKRNLPVNFEVARESGPPHMKNFVTKVSVGEFVGEGNGKSKKISKKNAAIAVLEEL [E48N]: the abundance fitness was -0.045 ± 0.07.
With KSEISQVFEIALKRNLPVNFEVARESGPPHMKNFVTKVSVGEFVGEGRGKSKKISKKNAAIAVLEEL [E48R], the abundance fitness worked out at 0.104 ± 0.032.
Regarding KSEISQVFEIALKRNLPVNFEVARESGPPHMKNFVTKVSVGEFVGEGVGKSKKISKKNAAIAVLEEL [E48V], the abundance fitness was found to be 0.048 ± 0.047.
In the case of KSEISQVFEIALKRNLPVNFEVARESGPPHMKNFVTKVSVGEFVGEGLGKSKKISKKNAAIAVLEEL [E48L], the abundance fitness is -0.044 ± 0.044.
Consider KSEISQVFEIALKRNLPVNFEVARESGPPHMKNFVTKVSVGEFVGEGDGKSKKISKKNAAIAVLEEL [E48D], for which the abundance fitness was -0.427 ± 0.1.
In the case of KSEISQVFEIALKRNLPVNFEVARESGPPHMKNFVTKVSVGEFVGEGHGKSKKISKKNAAIAVLEEL [E48H], the abundance fitness was -0.061 ± 0.11.
In the case of KSEISQVFEIALKRNLPVNFEVARESGPPHMKNFVTKVSVGEFVGEGIGKSKKISKKNAAIAVLEEL [E48I], the abundance fitness turned out to be 0.128 ± 0.1.
KSEISQVFEIALKRNLPVNFEVARESGPPHMKNFVTKVSVGEFVGEGMGKSKKISKKNAAIAVLEEL [E48M]: the abundance fitness is -0.013 ± 0.057.
Take KSEISQVFEIALKRNLPVNFEVARESGPPHMKNFVTKVSVGEFVGEGTGKSKKISKKNAAIAVLEEL [E48T]: the abundance fitness came out at 0.037 ± 0.058.
On to KSEISQVFEIALKRNLPVNFEVARESGPPHMKNFVTKVSVGEFVGEGPGKSKKISKKNAAIAVLEEL [E48P], for which the abundance fitness is -0.808 ± 0.07.
Regarding KSEISQVFEIALKRNLPVNFEVARESGPPHMKNFVTKVSVGEFVGEGQGKSKKISKKNAAIAVLEEL [E48Q], the abundance fitness stood at 0.054 ± 0.051.
In the case of KSEISQVFEIALKRNLPVNFEVARESGPPHMKNFVTKVSVGEFVGEGSGKSKKISKKNAAIAVLEEL [E48S], the abundance fitness was found to be 0.007 ± 0.044.
KSEISQVFEIALKRNLPVNFEVARESGPPHMKNFVTKVSVGEFVGEGCGKSKKISKKNAAIAVLEEL [E48C]: the abundance fitness turned out to be 0.064 ± 0.062.
KSEISQVFEIALKRNLPVNFEVARESGPPHMKNFVTKVSVGEFVGEGWGKSKKISKKNAAIAVLEEL [E48W]: the abundance fitness was -0.011 ± 0.043.
As for KSEISQVFEIALKRNLPVNFEVARESGPPHMKNFVTKVSVGEFVGEGEGMSKKISKKNAAIAVLEEL [K50M], the figure is -0.117 ± 0.053; as for KSEISQVFEIALKRNLPVNFEVARESGPPHMKNFVTKVSVGEFVGEGEGGSKKISKKNAAIAVLEEL [K50G], -0.184 ± 0.046.
For KSEISQVFEIALKRNLPVNFEVARESGPPHMKNFVTKVSVGEFVGEGEGNSKKISKKNAAIAVLEEL [K50N], the abundance fitness was determined as 0.009 ± 0.09.
For the variant KSEISQVFEIALKRNLPVNFEVARESGPPHMKNFVTKVSVGEFVGEGEGISKKISKKNAAIAVLEEL [K50I], the abundance fitness is -0.145 ± 0.065.
On to KSEISQVFEIALKRNLPVNFEVARESGPPHMKNFVTKVSVGEFVGEGEGSSKKISKKNAAIAVLEEL [K50S], for which the abundance fitness was -0.007 ± 0.044.
For the variant KSEISQVFEIALKRNLPVNFEVARESGPPHMKNFVTKVSVGEFVGEGEGPSKKISKKNAAIAVLEEL [K50P], the abundance fitness was 0.078 ± 0.066.
As to KSEISQVFEIALKRNLPVNFEVARESGPPHMKNFVTKVSVGEFVGEGEGFSKKISKKNAAIAVLEEL [K50F], the abundance fitness was -0.406 ± 0.081.
As for KSEISQVFEIALKRNLPVNFEVARESGPPHMKNFVTKVSVGEFVGEGEGDSKKISKKNAAIAVLEEL [K50D], the abundance fitness was -0.17 ± 0.08.
On to KSEISQVFEIALKRNLPVNFEVARESGPPHMKNFVTKVSVGEFVGEGEGESKKISKKNAAIAVLEEL [K50E], for which the abundance fitness is -0.004 ± 0.054.
Then KSEISQVFEIALKRNLPVNFEVARESGPPHMKNFVTKVSVGEFVGEGEGCSKKISKKNAAIAVLEEL [K50C], with -0.036 ± 0.07; and KSEISQVFEIALKRNLPVNFEVARESGPPHMKNFVTKVSVGEFVGEGEGASKKISKKNAAIAVLEEL [K50A], with -0.035 ± 0.047.
Turning to KSEISQVFEIALKRNLPVNFEVARESGPPHMKNFVTKVSVGEFVGEGEGQSKKISKKNAAIAVLEEL [K50Q], the abundance fitness is -0.036 ± 0.051.
Consider KSEISQVFEIALKRNLPVNFEVARESGPPHMKNFVTKVSVGEFVGEGEGRSKKISKKNAAIAVLEEL [K50R], for which the abundance fitness was -0.006 ± 0.034.
As for KSEISQVFEIALKRNLPVNFEVARESGPPHMKNFVTKVSVGEFVGEGEGVSKKISKKNAAIAVLEEL [K50V], the abundance fitness is -0.127 ± 0.045.
In the case of KSEISQVFEIALKRNLPVNFEVARESGPPHMKNFVTKVSVGEFVGEGEGWSKKISKKNAAIAVLEEL [K50W], the abundance fitness was -0.221 ± 0.051.
Then KSEISQVFEIALKRNLPVNFEVARESGPPHMKNFVTKVSVGEFVGEGEGTSKKISKKNAAIAVLEEL [K50T], with -0.048 ± 0.05.
For the variant KSEISQVFEIALKRNLPVNFEVARESGPPHMKNFVTKVSVGEFVGEGEGYSKKISKKNAAIAVLEEL [K50Y], the abundance fitness is -0.187 ± 0.083.
For the variant KSEISQVFEIALKRNLPVNFEVARESGPPHMKNFVTKVSVGEFVGEGEGLSKKISKKNAAIAVLEEL [K50L], the abundance fitness is -0.132 ± 0.042.
Then KSEISQVFEIALKRNLPVNFEVARESGPPHMKNFVTKVSVGEFVGEGEYKSKKISKKNAAIAVLEEL [G49Y], with -1 ± 0.18; and KSEISQVFEIALKRNLPVNFEVARESGPPHMKNFVTKVSVGEFVGEGEIKSKKISKKNAAIAVLEEL [G49I], with -0.791 ± 0.094; and KSEISQVFEIALKRNLPVNFEVARESGPPHMKNFVTKVSVGEFVGEGEFKSKKISKKNAAIAVLEEL [G49F], with -1.14 ± 0.17.
As for KSEISQVFEIALKRNLPVNFEVARESGPPHMKNFVTKVSVGEFVGEGESKSKKISKKNAAIAVLEEL [G49S], the abundance fitness is -0.483 ± 0.043.
